Laboratory results as given in paper PMC2744139.

Target: Cdc13 full-length (FL) (Saccharomyces cerevisiae, UniProt P32797 1-924)
Test: fluorescence anisotropy

Sequence of Cdc13 full-length (FL) (P32797 whole entry): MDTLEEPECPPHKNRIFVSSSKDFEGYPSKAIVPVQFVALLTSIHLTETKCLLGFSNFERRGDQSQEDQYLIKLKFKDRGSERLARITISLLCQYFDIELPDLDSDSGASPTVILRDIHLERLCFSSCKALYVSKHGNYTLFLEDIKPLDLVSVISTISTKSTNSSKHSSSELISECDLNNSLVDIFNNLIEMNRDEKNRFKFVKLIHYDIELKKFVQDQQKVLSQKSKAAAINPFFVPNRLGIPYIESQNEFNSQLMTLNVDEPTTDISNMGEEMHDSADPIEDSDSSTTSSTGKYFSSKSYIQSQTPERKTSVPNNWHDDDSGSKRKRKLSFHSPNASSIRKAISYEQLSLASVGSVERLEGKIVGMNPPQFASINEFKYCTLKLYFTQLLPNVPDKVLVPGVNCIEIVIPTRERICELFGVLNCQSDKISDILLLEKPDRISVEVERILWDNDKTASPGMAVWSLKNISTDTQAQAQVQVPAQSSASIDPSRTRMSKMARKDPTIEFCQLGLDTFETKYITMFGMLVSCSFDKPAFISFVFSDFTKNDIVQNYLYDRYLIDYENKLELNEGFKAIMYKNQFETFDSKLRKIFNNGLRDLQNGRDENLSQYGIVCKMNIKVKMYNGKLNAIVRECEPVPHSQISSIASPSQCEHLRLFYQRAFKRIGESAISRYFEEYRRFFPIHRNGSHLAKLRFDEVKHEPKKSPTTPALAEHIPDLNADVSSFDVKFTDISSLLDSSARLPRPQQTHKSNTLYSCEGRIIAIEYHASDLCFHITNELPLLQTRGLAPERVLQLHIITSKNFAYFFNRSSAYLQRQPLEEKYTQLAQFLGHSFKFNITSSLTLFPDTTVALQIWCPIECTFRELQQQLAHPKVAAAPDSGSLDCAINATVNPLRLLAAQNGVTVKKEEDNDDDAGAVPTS

B1: 7-base 3'-overhang telomeric DNA (mixed)
DNA: GTGGGTGTGTGTGTGGGGTGGTGTGTGTGG
?: CACCACCCCACACACACACCCAC
B1: no binding.
